The supplement of paper PMC10126150
± gives the standard deviation of the averaged measurements.

These sequences were tested on ATP (assay: switch fluorescence ratio, 500 uM ATP over buffer (Cy3 cluster intensity, sum of 5 cycles each) (fold (ratio)); higher = stronger signal-on switching upon ATP binding; sequences stand for … in TCGTCGGCAGCGTCAGATGTGTATAAGAGACAGTTTTTTTTTTTTTTTTTTTTTTTTT…TC). Settings: aptamer strand: ATP DNA aptamer (quencher-CACCTGGGGGAGTATTGCGGAGGAAGG + anchor), 100 nM annealed; ATP concentration: 500 uM.
How it was run: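 Five buffer/ATP imaging cycles were run on Cy3-labelled switching-strand clusters on a modified Illumina MiSeq flow-cell, with NaOH stripping and re-annealing between cycles. In each cycle, clusters annealed to 100 nM quencher-labelled ATP aptamer were imaged in selection buffer, then after 15 min with 500 uM ATP at 22 °C. Per cluster, the fluorescence ratio is summed target-cycle over summed buffer-cycle Cy3 intensity, averaged per switch-domain sequence. Only clusters within 100-1000 RFU were kept.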
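Also: ATP exposure 15 min at 22 °C before imaging.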

In order of falling switch fluorescence ratio:
1. ACAACGGGTG  2.1 ± 0.24
2. ACAAAGACCT  1.42 ± 0.031
3. AATTTTTTCC  1.41 ± 0.53
4. AATGGGATAC  1.16 ± 0.027
5. ACAAAAGGGG  1.16 ± 0.22
6. ACAAACACTT  1.158 ± 0.01
7. AATTAGGTGC  1.14 ± 0.077
8. AATTAGATAC  1.12 ± 0.074
9. AATGTGCCGT  1.07 ± 0.04
10. AATTCAGGGG  1.07 ± 0.069
11. AATTGTGTAC  1.052 ± 0.0018
12. AATTTGGCAC  1.05 ± 0.09
13. AATTTTTACT  1.05 ± 0.1
14. AATGGTAAAC  1.04 ± 0.018
15. AATTCGGGGG  1.04 ± 0.054
16. AATTTGGTCC  1.04 ± 0.058
17. ACAACGGTCT  1.042 ± 0.0035
18. AATGGCGGCC  1.03 ± 0.039
19. AATGTACTTT  1.03 ± 0.032
20. AATTACTTTA  1.03 ± 0.029
21. AATTTAAAGC  1.03 ± 0.07
22. ACAAGATACA  1.03 ± 0.021
23. AATGGGACTT  1.02 ± 0.015
24. AATGTTACGC  1.02 ± 0.058
25. AATGTTAGGC  1.02 ± 0.034
26. AATTGCCAGA  1.02 ± 0.02
27. AATTGGATGG  1.02 ± 0.047
28. AATTTACATG  1.02 ± 0.024
29. AATTTACGAT  1.02 ± 0.014
30. AATTTATCCG  1.02 ± 0.059
31. AATTTTATAC  1.02 ± 0.016
32. AATTTTCCAC  1.02 ± 0.043
33. ACAAAAAGGG  1.02 ± 0.039
34. AATGGGGGCA  1.007 ± 0.0076
35. AATGGGGTAC  1.009 ± 0.0087
36. AATGGTGTGT  1.01 ± 0.018
37. AATGTAAGGT  1.012 ± 0.006
38. AATGTATTTT  1.01 ± 0.029
39. AATGTGGCTA  1.01 ± 0.037
40. AATGTTATAG  1.008 ± 0.00014
41. AATTACCATC  1.01 ± 0.017
42. AATTAGGTGG  1.01 ± 0.039
43. AATTCGGGGT  1.005 ± 0.0024
44. AATTCGTATC  1.008 ± 0.0024
45. AATTGAGTAT  1.01 ± 0.015
46. AATTGCCAGT  1.01 ± 0.018
47. AATTGTGATG  1.01 ± 0.02
48. AATTTAAGCG  1.01 ± 0.017
49. AATTTAATAT  1.01 ± 0.016
50. AATTTACTGT  1.01 ± 0.023
51. AATTTTGGAC  1.01 ± 0.017
52. ACAAGATTGG  1.01 ± 0.041
53. AATGGGGGAC  1.001 ± 0.0025
54. AATGGTTGTG  1 ± 0.022
55. AATGTCGCGA  1 ± 0.025
56. AATTACGGGT  1 ± 0.021
57. AATTTTGGGT  1 ± 0.041
58. ACAAGAGGGT  1.002 ± 0.0051
59. AATTATGGGG  0.999 ± 0.032
60. AATTTCATTG  0.9986 ± 0.0035
61. AATGTGTTGT  0.998 ± 0.011
62. AATGTTATTG  0.99833 ± 0.00099
63. AATTGTTGTT  0.998 ± 0.033
64. AATTGTTTGT  0.998 ± 0.016
65. AATTTGAGAA  0.998 ± 0.029
66. AATGTGGTTG  0.997 ± 0.013
67. AATTAATGGA  0.997 ± 0.036
68. AATGGTGAAT  0.996 ± 0.03
69. AATTAGTGGG  0.995 ± 0.025
70. ACAAGAGGTT  0.995 ± 0.018
71. AATTAGAGTA  0.994 ± 0.068
72. AATTTTTCGG  0.994 ± 0.042
73. AATTAAGGCC  0.992 ± 0.026
74. AATTGGTACG  0.992 ± 0.021
75. AATTAGACAG  0.9912 ± 0.0047
76. AATTTGTGCG  0.991 ± 0.012
77. AATTTGGCAG  0.99 ± 0.025
78. AATTTTGGTT  0.99 ± 0.017
79. AATTTTATTG  0.988 ± 0.05
80. AATTTTTGTG  0.988 ± 0.022
81. AATTGGAAAA  0.987 ± 0.019
82. AATGGGTGAG  0.982 ± 0.014
83. AATGTGGGTA  0.982 ± 0.015
84. AATTCTGGAA  0.982 ± 0.011
85. AATTGAAAAG  0.982 ± 0.027
86. AATTGCGGTA  0.982 ± 0.05
87. AATTGGTTTT  0.982 ± 0.034
88. AATGGGGGAG  0.981 ± 0.0099
89. AATGTTATGG  0.9801 ± 0.0031
90. AATTAGTTCG  0.98 ± 0.02
91. AATTTTAGGA  0.98 ± 0.028
92. AATTTTTTAT  0.979 ± 0.036
93. AATTTAAATG  0.977 ± 0.03
94. AATGGTGCGA  0.975 ± 0.012
95. AATTGGGATG  0.975 ± 0.034
96. AATTGTTTCA  0.974 ± 0.016
97. AATGGCTGTG  0.972 ± 0.033
98. AATGGGAAGG  0.971 ± 0.028
99. AATTTATGC  0.97 ± 0.011
100. AATGTGGTAA  0.959 ± 0.043
